# Data reported in article doi:10.1101/2021.10.11.463801, “JIP3 regulates bi-directional organelle transport in neurons through its interaction with dynein and kinesin-1” (bioRxiv, 2021).
# Numbering of substitutions follows the chain as printed. In names and notes the source's numbering stands.
# B1: JIP4[1-103] (domain or fragment, human, UniProt O60271-1 1-103, looked up)
# chain: MELEDGVVYQEEPGGSGAVMSERVSGLAGSIYREFERLIGRYDEEVVKELMPLVVAVLENLDSVFAQDQEHQVELELLRDDNEQLITQYEREKALRKHAEEKF
# notes: human JIP4, residues 1-103 (RH1 domain); UniProt O60271-1; Dimer by AUC; also called JIP4-RH1; RH1 domain of JIP4; source: E. coli (BL21, BL21-CodonPlus-RIL or Rosetta), purified
# B2: JIP3[1-108] (domain or fragment, human, UniProt Q9UPT6-1 1-108, looked up)
# chain: MMEIQMDEGGGVVVYQDDYCSGSVMSERVSGLAGSIYREFERLIHCYDEEVVKELMPLVVNVLENLDSVLSENQEHEVELELLREDNEQLLTQYEREKALRRQAEEKF
# notes: UniProt Q9UPT6-1; Dimer by AUC; also called JIP3-RH1; RH1 domain of JIP3; source: E. coli (BL21, BL21-CodonPlus-RIL or Rosetta), purified
# B3: JIP3[1-108] V60Q (domain or fragment, human, UniProt Q9UPT6-1 1-108, looked up)
# chain: B2 chain with V60Q
# notes: human JIP3, residues 1-108 (RH1 domain) with V60Q; UniProt Q9UPT6-1; Dimer by AUC; also called JIP3-RH1 V60Q; source: E. coli (BL21, BL21-CodonPlus-RIL or Rosetta), purified
# B4: GST-tagged KLC1[185-501] (domain or fragment, human, UniProt Q07866-1 185-501, looked up)
# chain: DDPGQGIQQQHSSAAAAAQQGGYEIPARLRTLHNLVIQYASQGRYEVAVPLCKQALEDLEKTSGHDHPDVATMLNILALVYRDQNKYKDAANLLNDALAIREKTLGKDHPAVAATLNNLAVLYGKRGKYKEAEPLCKRALEIREKVLGKDHPDVAKQLNNLALLCQNQGKYEEVEYYYQRALEIYQTKLGPDDPNVAKTKNNLASCYLKQGKFKQAETLYKEILTRAHEREFGSVDDENKPIWMHAEEREECKGKQKDGTSFGEYGGWYKACKVDSPTVTTTLKNLGALYRRQGKFEAAETLEEAAMRSRKQGLDNV
# notes: human kinesin light chain 1 (KLC1), residues 185-501 (TPR domain); UniProt Q07866-1; also called KLC1 fragment; KLC1 TPR domain; source: E. coli (BL21, BL21-CodonPlus-RIL or Rosetta), purified; not shown: GST, N-terminal, kept
# Assays:
# [1] = target: the molecule itself; assay: AUC; sedimentation velocity, 42'000 rpm, 20 °C; 50 mM HEPES, 100 mM NaCl, 0.5 mM TCEP, pH 7.5; c(S) by SEDFIT
# mouse JIP3[186-505] = target: T1, mouse JIP3[186-505] (mouse, UniProt Q9ESN9-5 186-505); assay: pull-down; GST-tagged bait on glutathione agarose resin; purified recombinant proteins mixed in 50 mM HEPES, 100 mM NaCl, 5 mM DTT, pH 7.5; 1 h at 4 °C; eluted with 15 mM reduced L-glutathione; SDS-PAGE with Coomassie Blue or immunoblot; conditions: both partners purified
# T1 construct: mouse JIP3, residues 186-505 (holds the leucine zipper); numbers count on UniProt Q9ESN9-5; also called JIP3[186-505] wild type; source: E. coli (BL21, BL21-CodonPlus-RIL or Rosetta), purified
# T1 sequence (looked up): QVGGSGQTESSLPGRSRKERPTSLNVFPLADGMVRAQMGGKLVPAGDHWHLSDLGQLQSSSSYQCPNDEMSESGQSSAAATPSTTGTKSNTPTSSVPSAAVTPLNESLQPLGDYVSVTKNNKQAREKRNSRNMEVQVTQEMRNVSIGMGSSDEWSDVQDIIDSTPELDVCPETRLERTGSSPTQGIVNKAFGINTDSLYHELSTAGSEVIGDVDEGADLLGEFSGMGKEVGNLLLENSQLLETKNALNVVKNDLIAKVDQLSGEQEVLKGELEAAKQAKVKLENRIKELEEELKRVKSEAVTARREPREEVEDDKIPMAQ
Binder,stoichiometry N [1],binding result (mouse JIP3[186-505])
B1,2,–
B2,2,–
B3,2,–
B4,–,binds
